From patent publication US20190352418A1 (AGENUS, published 2019)
Read-outs that look alike come from different tables or passages of the source.

What was measured:
human CD73 on cells [1] = target: T1, human CD73 on cells (human, UniProt P21589 27-549); assay: cell-based or functional assay
T1 sequence (looked up): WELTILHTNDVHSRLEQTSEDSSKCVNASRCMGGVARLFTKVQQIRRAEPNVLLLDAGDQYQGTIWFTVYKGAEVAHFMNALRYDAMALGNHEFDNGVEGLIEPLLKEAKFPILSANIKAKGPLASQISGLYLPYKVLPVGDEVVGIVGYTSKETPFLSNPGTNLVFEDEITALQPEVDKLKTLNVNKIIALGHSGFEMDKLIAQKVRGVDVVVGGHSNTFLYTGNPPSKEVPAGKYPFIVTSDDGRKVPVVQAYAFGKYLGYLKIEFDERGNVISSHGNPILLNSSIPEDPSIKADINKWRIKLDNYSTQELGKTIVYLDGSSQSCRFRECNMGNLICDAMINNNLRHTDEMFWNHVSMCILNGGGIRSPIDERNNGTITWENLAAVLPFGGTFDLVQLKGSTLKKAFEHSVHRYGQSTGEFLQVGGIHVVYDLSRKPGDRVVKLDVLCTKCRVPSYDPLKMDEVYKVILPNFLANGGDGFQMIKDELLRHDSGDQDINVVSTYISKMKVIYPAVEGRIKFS

human CD73 on cells [2] = target: T1, human CD73 on cells; assay: cell-based or functional assay; remark: listed apart in the source
[3] = target: T2, recombinant human CD73 protein fused with a 6×His-tag (R&D Systems, 5795EN) (human, UniProt P21589 27-547); assay: cell-based or functional assay
T2 sequence: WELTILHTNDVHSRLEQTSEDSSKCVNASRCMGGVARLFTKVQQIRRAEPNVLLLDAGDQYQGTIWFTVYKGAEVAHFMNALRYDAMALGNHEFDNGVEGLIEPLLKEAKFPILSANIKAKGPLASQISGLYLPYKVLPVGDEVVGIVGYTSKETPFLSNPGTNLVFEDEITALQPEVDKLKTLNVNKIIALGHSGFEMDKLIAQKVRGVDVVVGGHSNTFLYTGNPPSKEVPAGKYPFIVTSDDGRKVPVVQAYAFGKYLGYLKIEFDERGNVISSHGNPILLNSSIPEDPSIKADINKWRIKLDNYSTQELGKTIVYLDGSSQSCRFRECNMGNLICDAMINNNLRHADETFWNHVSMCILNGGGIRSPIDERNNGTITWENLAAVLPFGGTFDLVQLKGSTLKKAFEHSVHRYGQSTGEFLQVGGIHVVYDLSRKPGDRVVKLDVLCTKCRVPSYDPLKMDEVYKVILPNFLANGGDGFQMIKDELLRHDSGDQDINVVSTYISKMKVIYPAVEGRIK

[4] = target: T2, recombinant human CD73 protein fused …; assay: SPR; antibody on Protein A chip, CD73-His as analyte
Protocol: (§1) The sensor chip was regenerated between cycles with a 30-sec injection of 10 mM glycine, pH 1.5. Sensograms were evaluated and fit to a simple Langmuir 1:1 interaction model using the global data analysis option of BiaEvaluation 3.1 software. Data quality was verified by visually inspecting deviations and curve fitting, and by evaluating the parameters of Rmax, Chi2, and Tc.

[5] = target: T3, recombinant cynomolgus CD73 protein fused with a 6×His-tag (Sino Biological, 90192-C08H) (cynomolgus, UniProt A0A2K5V5U7 27-547); assay: as above
T3 sequence: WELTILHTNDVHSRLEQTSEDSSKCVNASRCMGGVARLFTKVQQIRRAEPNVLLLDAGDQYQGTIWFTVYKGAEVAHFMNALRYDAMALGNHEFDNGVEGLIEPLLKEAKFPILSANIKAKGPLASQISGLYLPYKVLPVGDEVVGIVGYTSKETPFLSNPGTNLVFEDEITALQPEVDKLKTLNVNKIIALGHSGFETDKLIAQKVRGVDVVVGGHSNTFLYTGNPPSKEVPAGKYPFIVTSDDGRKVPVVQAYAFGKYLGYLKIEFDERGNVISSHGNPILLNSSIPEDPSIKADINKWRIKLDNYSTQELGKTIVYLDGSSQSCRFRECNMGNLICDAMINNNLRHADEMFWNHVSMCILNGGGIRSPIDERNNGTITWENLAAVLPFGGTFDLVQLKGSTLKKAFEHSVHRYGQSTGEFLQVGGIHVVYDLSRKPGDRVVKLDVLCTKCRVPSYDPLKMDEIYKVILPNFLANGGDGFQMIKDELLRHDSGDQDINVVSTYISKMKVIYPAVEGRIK
Protocol: as §1

[6] = target: T4, recombinant mouse CD73 protein fused with a 6×His-tag (R&D Systems, 4488EN) (mouse, UniProt Q61503 29-549, limits assumed); assay: as above
T4 sequence (looked up): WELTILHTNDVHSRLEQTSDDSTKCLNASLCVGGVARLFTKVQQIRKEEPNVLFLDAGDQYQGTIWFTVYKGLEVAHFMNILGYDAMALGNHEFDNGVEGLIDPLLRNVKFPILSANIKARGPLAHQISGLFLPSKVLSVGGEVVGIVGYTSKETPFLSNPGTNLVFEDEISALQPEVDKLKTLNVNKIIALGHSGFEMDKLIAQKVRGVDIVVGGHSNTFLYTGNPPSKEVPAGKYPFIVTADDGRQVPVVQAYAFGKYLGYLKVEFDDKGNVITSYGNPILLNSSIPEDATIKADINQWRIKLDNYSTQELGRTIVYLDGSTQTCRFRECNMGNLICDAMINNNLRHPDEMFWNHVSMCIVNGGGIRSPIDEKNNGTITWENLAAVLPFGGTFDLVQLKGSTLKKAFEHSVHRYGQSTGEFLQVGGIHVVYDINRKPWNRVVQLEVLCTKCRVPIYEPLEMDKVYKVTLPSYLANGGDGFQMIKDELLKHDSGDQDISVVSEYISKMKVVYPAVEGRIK
Protocol: as §1

[7] = target: T2, recombinant human CD73 protein fused …; assay: as above; remark: listed apart in the source
Protocol: as §1

[8] = target: T3, recombinant cynomolgus CD73 protein …; assay: as above; remark: listed apart in the source
Protocol: as §1

human CD73 on cells [9] = target: T1, human CD73 on cells; assay: flow cytometry on CHO cells expressing human CD73; area under MFI curve
Protocol: (§2) Briefly, Chinese hamster ovarian (CHO) cells were transduced with lentiviral vectors comprising a mouse, cynomolgus, or human CD73 coding sequence under the control of a CMV promoter, and stable CHO-CD73 cells were generated by antibiotic selection. Expression of CD73 was verified by flow cytometry using positive control antibodies. The stable CHO-CD73 cells were grown in suspension culture in RPMI media supplemented with 10% heat-inactivated FBS at 37° C. and 5% CO₂. […] The cells were then washed twice and analyzed using the LSRFortessa™ flow cytometer (BD Biosciences). FACS data were analyzed using FACS DIVA and WEHI Weasel software, and were plotted with Graphpad Prism software.
(§3) The affinities of the humanized anti-CD73 antibodies to membrane-associated CD73 were determined. Specifically, CHO cells ectopically expressing full-length human or cynomolgus CD73 were generated, and the binding of the antibodies to the cells were examined, using the method as described in Example 6.1.3.

cynomolgus CD73 on cells [10] = target: T5, cynomolgus CD73 on cells (cynomolgus, UniProt A0A2K5V5U7 27-549); assay: flow cytometry on CHO cells expressing cynomolgus CD73; area under MFI curve
T5 construct: whole, on cells; also called full-length cynomolgus CD73 on CHO cells; CD73 on cynomolgus monkey CD8+ T cells
T5 sequence: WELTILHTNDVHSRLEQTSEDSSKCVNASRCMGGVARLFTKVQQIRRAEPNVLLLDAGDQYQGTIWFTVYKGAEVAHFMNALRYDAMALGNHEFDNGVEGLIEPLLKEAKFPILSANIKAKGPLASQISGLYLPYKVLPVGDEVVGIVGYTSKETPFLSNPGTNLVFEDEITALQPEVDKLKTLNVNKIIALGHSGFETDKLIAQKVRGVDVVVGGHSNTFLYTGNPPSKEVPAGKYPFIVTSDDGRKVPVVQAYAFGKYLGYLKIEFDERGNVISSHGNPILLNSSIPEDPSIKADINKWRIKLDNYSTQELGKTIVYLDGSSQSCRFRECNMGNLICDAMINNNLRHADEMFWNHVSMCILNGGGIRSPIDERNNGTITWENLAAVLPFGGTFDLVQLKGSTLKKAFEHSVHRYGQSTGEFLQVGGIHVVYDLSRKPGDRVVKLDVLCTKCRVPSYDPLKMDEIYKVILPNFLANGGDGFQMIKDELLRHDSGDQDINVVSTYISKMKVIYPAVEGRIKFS
Protocol: as §2, §3

human CD73 on cells [11] = target: T1, human CD73 on cells; assay: flow cytometry, CHO cells expressing human CD73, MFI vs antibody concentration
cynomolgus CD73 on cells [12] = target: T5, cynomolgus CD73 on cells; assay: flow cytometry, CHO cells expressing cynomolgus CD73, MFI vs antibody concentration
human CD73 on cells [13] = target: T1, human CD73 on cells; assay: flow cytometry, CHO cells expressing human CD73 (panel CHO-huCD73), MFI vs antibody concentration
Protocol: as §2

mouse CD73 on cells = target: T6, mouse CD73 on cells (mouse, UniProt Q61503 29-551); assay: flow cytometry, CHO cells expressing mouse CD73 (panel CHO-muCD73), MFI vs antibody concentration
T6 construct: whole, on cells; also called full-length mouse CD73 on CHO cells (CHO-muCD73); CD73 on mouse CD8+ T cells
T6 sequence (looked up): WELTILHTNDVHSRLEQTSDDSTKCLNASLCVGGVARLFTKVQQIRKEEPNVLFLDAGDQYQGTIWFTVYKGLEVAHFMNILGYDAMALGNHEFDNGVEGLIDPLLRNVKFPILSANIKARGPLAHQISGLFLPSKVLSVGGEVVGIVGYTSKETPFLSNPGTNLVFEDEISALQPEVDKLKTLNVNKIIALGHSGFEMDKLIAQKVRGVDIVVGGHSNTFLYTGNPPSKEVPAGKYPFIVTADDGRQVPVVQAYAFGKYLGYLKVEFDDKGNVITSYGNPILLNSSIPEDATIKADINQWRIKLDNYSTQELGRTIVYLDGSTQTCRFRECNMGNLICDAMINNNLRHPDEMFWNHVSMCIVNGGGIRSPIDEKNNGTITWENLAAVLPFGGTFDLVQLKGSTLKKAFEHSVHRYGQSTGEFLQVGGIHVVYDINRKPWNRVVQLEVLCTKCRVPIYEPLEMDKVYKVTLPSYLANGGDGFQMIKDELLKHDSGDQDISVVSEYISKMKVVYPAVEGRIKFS
Protocol: as §2

cynomolgus CD73 on cells [14] = target: T5, cynomolgus CD73 on cells; assay: flow cytometry, CHO cells expressing cynomolgus CD73 (panel CHO-cyCD73), MFI vs antibody concentration
Protocol: as §2

B1: BA015 (antibody, human IgG1, kappa, N297A)
heavy: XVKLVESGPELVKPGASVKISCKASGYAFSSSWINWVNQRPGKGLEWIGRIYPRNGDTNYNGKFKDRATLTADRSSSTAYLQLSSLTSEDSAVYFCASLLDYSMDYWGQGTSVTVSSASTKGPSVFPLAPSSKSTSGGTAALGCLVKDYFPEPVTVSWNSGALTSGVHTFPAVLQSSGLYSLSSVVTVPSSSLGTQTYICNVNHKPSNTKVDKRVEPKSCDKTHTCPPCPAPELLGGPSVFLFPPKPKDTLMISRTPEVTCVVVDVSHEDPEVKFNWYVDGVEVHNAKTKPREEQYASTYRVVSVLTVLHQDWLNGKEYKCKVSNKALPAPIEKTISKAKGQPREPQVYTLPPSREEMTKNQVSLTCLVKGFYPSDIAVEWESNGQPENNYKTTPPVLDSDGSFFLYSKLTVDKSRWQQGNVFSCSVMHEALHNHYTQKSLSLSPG
light: DIQMTQSTSSLSASLGDRVTISCRASQDISNYLNWYQQKPDGTVKLLIYYTSRLHSGVPSRFSGSGSGTDYSLTISNLEQEDIATYFCQQGNTLPLTFGAGTKLELKRTVAAPSVFIFPPSDEQLKSGTASVVCLLNNFYPREAKVQWKVDNALQSGNSQESVTEQDSKDSTYSLSSTLTLSKADYEKHKVYACEVTHQGLSSPVTKSFNRGEC
modifications: X at position 1 is E or pyroglutamate
notes: chimeric: BA012 murine variable regions, human IgG1 N297A and human Igκ constant regions
Q: Which results are given for B1?
A: AUC, CD73 enzymatic activity on Jurkat cells expressing human CD73 (FIG. 2A) (human CD73 on cells [1]): 239; AUC, CD73 enzymatic activity on Jurkat cells expressing human CD73 (FIGS. 6B-6P) (human CD73 on cells [2]): 328; AUC, enzymatic activity of immobilized recombinant human CD73 (FIGS. 7B-7P) [3]: 91.2; Kd [4]: 0.015 nM; koff [4]: 0.00041 s⁻¹; kon [4]: 2.8e+07 M⁻¹ s⁻¹; Kd [5]: 0.3 nM; koff [5]: 8.7e-05 s⁻¹; kon [5]: 310000 M⁻¹ s⁻¹; Kd [6]: 10 nM; koff [6]: 0.0006 s⁻¹; kon [6]: 61000 M⁻¹ s⁻¹; Kd [7]: 0.088 nM; koff [7]: 0.0002 s⁻¹; kon [7]: 2.27e+06 M⁻¹ s⁻¹; Kd [8]: 0.07 nM; koff [8]: 8.3e-05 s⁻¹; kon [8]: 1.14e+06 M⁻¹ s⁻¹; AUC (human CD73 on cells [9]): 113000; AUC (cynomolgus CD73 on cells [10]): 2440; EC50 (read off the curve) (human CD73 on cells [11]): ~0.1 µg/mL; EC50 (read off the curve) (cynomolgus CD73 on cells [12]): ~0.2 µg/mL; EC50 (read off the curve) (human CD73 on cells [13]): ~0.2 µg/mL; EC50 (read off the curve) (mouse CD73 on cells): ~0.4 µg/mL; EC50 (read off the curve) (cynomolgus CD73 on cells [14]): ~0.5 µg/mL
